Positions count from the first letter of the chain named. Where two headings read alike, the source gives them in different places.
T1: human BMP10 (Bone Morphogenetic Protein 10 Preproprotein [Homo sapiens], NP_055297) (human, UniProt O95393 317-424)
T1 construct: Bought recombinant protein; also called huBMP10; rhBMP10 (R&D Cat#2926-BP-025)
T1 sequence: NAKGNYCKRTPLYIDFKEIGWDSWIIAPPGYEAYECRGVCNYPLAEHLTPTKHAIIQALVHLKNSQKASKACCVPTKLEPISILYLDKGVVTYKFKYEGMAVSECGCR

T2: human BMP9 (BMP9/Growth Differentiation Factor 2 [Homo sapiens], NP_057288) (human, UniProt Q9UK05 320-429, limits assumed)
T2 sequence: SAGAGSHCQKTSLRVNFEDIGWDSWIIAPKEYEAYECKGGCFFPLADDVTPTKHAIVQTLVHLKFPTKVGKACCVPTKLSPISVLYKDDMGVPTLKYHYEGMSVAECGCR

T3: rat BMP9 (rat, UniProt M0RB87 320-430, The mature growth factor is a disulfide-linked homodimer. One copy of the polypeptide is given.)
T3 construct: also called rat BMP9 (R&D Systems 5566-BP); rat BMP9 condition medium
T3 sequence: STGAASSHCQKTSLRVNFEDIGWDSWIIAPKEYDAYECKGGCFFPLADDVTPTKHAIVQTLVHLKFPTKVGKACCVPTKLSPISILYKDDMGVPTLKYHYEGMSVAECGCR

T4: cyno BMP9 (cyno, UniProt G7PEU8 320-429)
T4 sequence: T2 sequence with A2T, D23N, V84I

T5: mouse BMP9 (mouse, UniProt Q9WV56 319-428, limits assumed)
T5 construct: also called murine BMP9; mouse BMP9 (iPROT101715)
T5 sequence (looked up): T2 sequence with A2T, G5S, E33D, V84I

T6: human BMP7 (human, UniProt P18075 293-431)
T6 construct: Bought recombinant protein; also called huBMP7; rhBMP7 (R&D Cat#354-BP-010)
T6 sequence (looked up): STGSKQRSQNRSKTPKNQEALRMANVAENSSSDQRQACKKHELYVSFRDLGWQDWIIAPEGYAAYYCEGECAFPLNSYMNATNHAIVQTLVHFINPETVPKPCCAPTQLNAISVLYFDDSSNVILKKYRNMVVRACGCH

B1: Antibody BMP9-1: AM0100 (antibody, human IgG1, kappa, V domains shown)
VH: QVQLVQSGAEVKKPGASVKVSCKASGYTFTRYWMHWVRQAPGQGLEWMGEINPSQGGTNYNEKFKSRVTMTVDKSISTAYMELSRLRSDDTAVYYCAIGSNYGGLVYWGQGTLVTVSS
VL: EIVLTQSPATLSLSPGERATLSCRASESLDNYGISFMNWFQQKPGQAPRFLIYAASNQGSGIPARFSGSGSGTDFTLTISSLQPEDTAVYFCQQSKEVPRTFGGGTKVEIKR
notes: also called 4E10D7-AM0100
B2: Antibody BMP9-6: MOR022965 (antibody, human IgG1, kappa, V domains shown)
VH: QVQLVQSGAEVKKPGSSVKVSCKASGGTFSSYAISWVRQAPGQGLEWMGHIIPHWGHARYAQKFQGRVTITADESTSTAYMELSSLRSEDTAVYYCARSASSLPHFHWFDYWGQGTLVTVSS
VL: DIQMTQSPSSLSASVGDRVTITCRASQDINNYLNWYQQKPGKAPKLLIYAASRLQSGVPSRFSGSGSGTDFTLTISSLQPEDFATYYCQQRDTTPWTFGQGTKVEIKR
notes: Fully human, phage display
B3: Antibody BMP9-4: AM4405 (antibody, human IgG1, kappa, V domains shown)
VH: QVQLVQSGAEVKKPGASVKVSCKASGYTFRSYNMHWVRQAPGQGLEWMGLIYPGNAVTSYSQKFKDRVTMTVDKSTSTAYMELSSLRSEDTAVYYCAKDDYFRGGSYAMDYWGQGTTVTVSS
VL: EIVLTQSPDFQSVTPKEKVTITCRASQSIRNNLHWYQQKPDQSPKLLIKYASQSIRGVPSRFSGSGSGTDFTLTINSLEAEDAATYYCQQSHSWPYTFGGGTKVEIKR
notes: also called 2B11G2-AM4405
B4: Mouse Antibody 4E10D7 (antibody, V domains shown)
VH: QVQLQQPGAEAVKPGASVKLSCKASGYTFTRYWMHWVKQRPGQGLEWIGEINPSNGGTNYNEKFKSKATLTVDKSSSTAYMQLSSLTSEDFAVYYCTMGSNYGGFVYWGQGTLVTVSA
VL: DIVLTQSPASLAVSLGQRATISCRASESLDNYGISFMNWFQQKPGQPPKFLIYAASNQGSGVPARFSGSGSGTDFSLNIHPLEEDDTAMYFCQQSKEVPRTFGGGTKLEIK
notes: Mouse hybridoma monoclonal antibody; also called parental 4E10D7 antibody
B5: Mouse Antibody 2B11G2 (antibody, V domains shown)
VH: QAYLQQSGAELVRPGASVKMSCKASGYTFPSYNMHWVKQTPRQGLEWIGVIYPGNGVTSYSQKFKDKATLTVDKSSSTAYMQLSSLTSEDSAVYFCAKDDYFYGGSYAMDYWGQGTSVTVSS
VL: DIVLTQSPATLSVTPGDSVSLSCRASQSISNNLHWYQQISHESPRLLIKYASQSISGIPSRFSGSGSGTDFTLSINSMETEDFGMFFCQQSHSWPYTFGGGTKLEIK
notes: Mouse hybridoma monoclonal antibody; also called B211G2

Assays:
[1] = target: T1, human BMP10 (Bone Morphogenetic Protein …); assay: Table 5 (caption: MSD-SET; Example 6 describes Biacore SPR on immobilised rhBMP10, Fab 31.25-1000 nM)
[2] = target: T2, human BMP9 (BMP9/Growth Differentiation …); assay: cell-based or functional assay
human BMP2 [3] = target: T7, human BMP2 (human, UniProt P12643 283-396); assay: Table 5 (caption: MSD-SET; Example 6 describes Biacore SPR on immobilised rhBMP2, Fab 31.25-1000 nM)
T7 construct: Bought recombinant protein; also called huBMP2; rhBMP2 (R&D Cat#355-BM-010)
T7 sequence (P12643 283-396 limits assumed): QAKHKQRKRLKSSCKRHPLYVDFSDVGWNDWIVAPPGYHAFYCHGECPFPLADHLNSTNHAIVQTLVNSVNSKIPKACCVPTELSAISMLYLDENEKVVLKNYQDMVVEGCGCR

rat BMP9 = target: T3, rat BMP9; assay: MSD-SET solution equilibrium titration
Method: (§1) The amount of free Fab binding sites was determined by transferring the mixtures on antigen-coated plates and a brief incubation. The free Fab was consequently bound to the plate and detected with a detection antibody after a washing step for removing Fab-antigen complexes. The resulting signal was plotted versus the antigen concentration; and the KD was accurately determined by non-linear curve fitting.
(§2) A 22 serial 2ⁿ dilution of the antigens (human BMP9 (GD-43-KS00); cyno BMP9, rat BMP9 (R&D Systems 5566-BP) or mouse BMP9 (iPROT101715)) was prepared in incubation buffer (PBS (Teknova Cat#P0195) containing 0.5% BSA (Sigma Cat#A7906-500G) and 0.02% Tween-20 (VWR Cat#437082Q)). A constant concentration of the Fab was added. A volume of 60 ul of each antigen:Fab mix was distributed in duplicates to a 384-well polypropylene microtiter plate (PP MTP, Greiner Cat#781280). Incubation buffer served as negative control and a sample containing no antigen served as positive control (Bₘₐₓ). The plate was sealed and incubated overnight (O/N) at room temperature (RT).
(§3) A 384-well standard MSD array plate (Meso Scale Discovery Cat#L21XA) was coated with 30 ul/well human BMP9 diluted in PBS as capture agent and incubated O/N at 4° C. After washing for 3 times with 70 ul/well washing buffer (TBS (Teknova Cat#T1680) with 0.05% Tween-20), the plate was blocked with 50 ul/well blocking buffer (PBS with 5% BSA) for 1 hour at RT. After washing, a volume of 30 ul/well of the antigen:Fab mix was transferred from the PP MTP to the coated MSD plate and incubated for 20 min at RT. After an additional wash step, 30 ul of detection antibody (Goat anti-human Fab specific (Jackson Immuno Research Cat#109-005-097) conjugated with MSD SULFO-TAG NHS Ester (Meso Scale Discovery Cat#R91AN-1)) diluted 1:1000 in incubation buffer was added to each well and incubated for 30 min at RT. The MSD plate was washed and 35 ul/well of read buffer (MSD Read Buffer T 4×, Meso Scale Discovery Cat#R92TC-1) was added and then incubated for 5 min at RT. ECL signals were measured with the MSD SECTOR Imager 6000. The data was evaluated with XLfit (IDBS) software following a 1:1 fit model for Fab (according to Piehler et al., 1997).

cyno BMP9 = target: T4, cyno BMP9; assay: MSD-SET solution equilibrium titration
Method: as §1, §2, §3

mouse BMP9 = target: T5, mouse BMP9; assay: MSD-SET solution equilibrium titration
Method: as §1, §2, §3

[4] = target: T2, human BMP9 (BMP9/Growth Differentiation …); assay: MSD-SET solution equilibrium titration
Method: as §1, §2, §3

human BMP7 [5] = target: T6, human BMP7; assay: Table 5 (caption: MSD-SET; Example 6 describes Biacore SPR on immobilised rhBMP7, Fab 31.25-1000 nM)
[6] = target: T2, human BMP9 (BMP9/Growth Differentiation …); assay: blocking ELISA; competitor Type II BMP receptor (ActRIIB, BMPRII)
Method: (§4) Blocking ELISA was used to identify positive clones that can inhibit the interactions between BMP9 and its receptors. Four different recombinant BMP9 receptors can be used: human Alk1-Fc (R&D system, 370-AL-100); human BMPRII-Fc (R&D system, 811-BR-100); human ActRIIA-Fc (R&D system, 340-R2-100); human ActRIIB-Fc (R&D system).
(§5) The blocking activity of antibody sample to specific ligand/receptor combination was measured by ELISA. In brief, 50 ul of receptor at a concentration of 1 ug/ml in coating buffer (PBS) was added into 96 well ELISA plates at 4° C. overnight, followed by washing with PBST one time. ELISA plates were blocked with 200 ul blocking buffer (PBST containing 1% BSA) in each well and then incubated at room temperature (RT) for 1 hour, followed by washing with PBST for 3 times. Diluted antibody sample was mixed with biotinylated human BMP9 (bio-hBMP9 of 1 ug/ml) and incubated at RT for 45 minutes. The mixture of antibody and bio-hBMP9 was added to the plates of 50 ul/well and then incubated at RT for 30 minutes, followed by washing with PBST for 3 times. 50 ul Poly-HRP Streptavidin (Thermofisher, 21140) was added to each well of the plates and incubated at RT for 30 minutes, followed by washing with PBST for 5 times. Finally, 50 ul of TMB reagent (Invitrogen 002023) and 50 ul of 1N HCl (Invitrogen SS01100) were added to each well to stop the reaction. Absorbance of each well was read at 450 nm to get readout OD₄₅₀.

[7] = target: T2, human BMP9 (BMP9/Growth Differentiation …); assay: cell-based or functional assay; remark: listed apart in the source
[8] = target: T1, human BMP10 (Bone Morphogenetic Protein …); assay: Table 7 (caption: MSD-SET; Example 6 describes Biacore SPR on immobilised rhBMP10, Fab 31.25-1000 nM)
human BMP2 [9] = target: T7, human BMP2; assay: table caption: MSD-SET; Example 6 describes Biacore SPR for BMP2, BMP7, BMP10
[10] = target: T2, human BMP9 (BMP9/Growth Differentiation …); assay: blocking ELISA; competitor Type I BMP receptor (AlkI)
Method: as §4, §5

human BMP2 [11] = target: T7, human BMP2; assay: table caption: MSD-SET; Example 6 describes Biacore SPR for BMP2, BMP7, BMP10; remark: listed apart in the source
human BMP7 [12] = target: T6, human BMP7; assay: as above
[13] = target: T2, human BMP9 (BMP9/Growth Differentiation …); assay: Biacore SPR, bivalent model, ka1
[14] = target: T2, human BMP9 (BMP9/Growth Differentiation …); assay: Biacore SPR, bivalent model, KD from ka1 and kd1
[15] = target: T2, human BMP9 (BMP9/Growth Differentiation …); assay: Biacore SPR, bivalent model, kd1

| Binder | binding result [1] | RGA IC50 [pM] (HEK293T BRE-Luc reporter gene assay) [2] | Kd (rat BMP9) [nM] | Kd (cyno BMP9) [nM] | Kd (mouse BMP9) [nM] | Kd [4] [nM] | IC50 [10] [nM] | kon [13] [M⁻¹ s⁻¹] | Kd [14] [nM] | koff [15] [s⁻¹] | also measured |
| --- | --- | --- | --- | --- | --- | --- | --- | --- | --- | --- | --- |
| B1 | no binding | 83 | 0.094 | 0.128 | 0.073 | 0.182 | – | – | – | – | binding result (human BMP2 [3]): no binding; binding result (human BMP7 [5]): no binding; IC50 [6]: ≤ 1 nM |
| B2 | – | – | – | 0.023 | 0.069 | 0.032 | ≤ 1 | – | – | – | RGA IC50 [pM] (HEK293T BRE-Luc reporter gene assay) [7]: 180 pM; binding result [8]: no binding; Kd (human BMP2 [9]): 3110 nM |
| B3 | no binding | 90 | 0.013 | 0.048 | 0.008 | 0.018 | ≤ 1 | – | – | – | Kd (human BMP2 [11]): 177 nM; Kd (human BMP7 [12]): 9170 nM |
| B4 | – | – | – | – | – | – | – | 281000 | 2.2 | 0.000617 | – |
| B5 | – | – | – | – | – | – | – | 2510 | 66.2 | 0.000166 | – |
